Measurements from article PMC3995211.

Legend:
[1] = substrate: NC(=O)C1=CN([C@@H]2O[C@H](COP(=O)(O)OP(=O)(O)OC[C@H]3O[C@@H](n4cnc5c(N)ncnc54)[C@H](O)[C@@H]3O)[C@@H](O)[C@H]2O)C=CC1; assay: cells, lysate or membranes; type: biochemical, Fructilactobacillus sanfranciscensis; conditions: 50 mM potassium phosphate pH 7.0, 25 °C, air-saturated O2 (250 µM), cell free extract
[2] = substrate: NC(=O)C1=CN([C@@H]2O[C@H](COP(=O)(O)OP(=O)(O)OC[C@H]3O[C@@H](n4cnc5c(N)ncnc54)[C@H](OP(=O)(O)O)[C@@H]3O)[C@@H](O)[C@H]2O)C=CC1; assay: cells, lysate or membranes; type: biochemical, Fructilactobacillus sanfranciscensis; conditions: 50 mM potassium phosphate pH 7.0, 25 °C, air-saturated O2 (250 µM), cell free extract

B1: LsNOX (Lactobacillus sanfranciscensis NOX) (Fructilactobacillus sanfranciscensis) (protein)
chain: MKVIVVGCTHAGTFAVKQTIADHPDADVTAYEMNDNISFLSCGIALYLGKEIKNNDPRGLFYSSPEELSNLGANVQMRHQVTNVDPETKTIKVKDLITNEEKTEAYDKLIMTTGSKPTVPPIPGIDSSRVYLCKNYNDAKKLFEEAPKAKTITIIGSGYIGAELAEAYSNQNYNVNLIDGHERVLYKYFDKEFTDILAKDYEAHGVNLVLGSKVAAFEEVDDEIITKTLDGKEIKSDIAILCIGFRPNTELLKGKVAMLDNGAIITDEYMHSSNRDIFAAGDSAAVHYNPTNSNAYIPLATNAVRQGRLVGLNLTEDKVKDMGTQSSSGLKLYGRTYVSTGINTALAKANNLKVSEVIIADNYRPEFMLSTDEVLMSLVYDPKTRVILGGALSSMHDVSQSANVLSVCIQNKNTIDDLAMVDMLFQPQFDRPFNYLNILGQAAQAQADKAHK
notes: synthetic gene, plasmid pMSsN2, E. coli BL21 (DE3), untagged, cell free extract, about 50 kDa
In the case of B1, the Km [1] is reported as 9 ± 1 µM, the Vmax [1] is reported as 2.2 µmol/min/mg and the Km [2] is reported as 5 ± 1 µM. For the same protein, the Vmax [2] was 1.1 µmol/min/mg.
